Experimental data as given in the supplement of paper PMC10567573.

B1: SNX8 (parent)
chain: RMVPALPPKRMLGADREFIEARRR
B2: ANKRD40 (parent)
chain: VCCCELGVNPDQVEKIRKLPNTLL

Variants of: B1
Experiment: protein stability index of a GFP-peptide fusion (GPS, HEK-293T) (PSI 1-6); higher = more stable
Settings: c terminus: a fixed tail appended
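Note: lentivirally expressed fusions sorted by FACS into six bins by GFP to DsRed ratio, PSI derived from sequencing read proportions per bin multiplied by bin number.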

Protein stability index of substitutions, site by site:
P7: R 3.76; W 3.3; A 3.58; I 3.62; H 3.75
A21: D 3.83; C 4.08; H 4.32; W 2.67; I 3.34
I19: A 4.23; Y 3.98; P 4.65; W 3.82; G 3.96
R1: N 2.71; M 2.88
M2: H 4.04; T 4.08; N 3.99; I 3.01; Y 3.57; D 4.17
R10: G 4.16; T 4.24; M 4.06
G13: F 2.22; K 3.72; D 3.79; P 2.83; E 3.57
D15: N 3.43
R22: Y 3.43; K 4.09; L 2.92; C 4; T 3.75; V 3.33; N 3.77; Q 4.05
L12: D 4.54; E 5.11; S 4.41; R 4.19; H 4; Y 3.73; F 4.12; P 4.18
A14: S 3.9; W 2.51; T 3.63; P 4; E 4.34; C 3.52; Y 2.88
R16: S 3.91; K 3.71; A 4.04; P 4.33; V 3.62; L 2.65; C 3.53
P8: V 3.44; K 3.87; N 3.79
P4: G 3.87; Q 3.49; M 3.1; S 3.69
K9: P 4.37; F 3.83; I 4.17
A5: V 4.01; F 3.24; M 3.49
F18: K 4.26; M 3.78; A 3.56; I 3.85; D 4.08; T 4.2
L6: E 4.52; V 3.97; Y 3.39; T 3.63; Q 4.02; F 3.45
E20: S 4; V 4.11; R 4.28; F 3.12
R23: W 1.28; H 2.21; C 2.95; F 1.75; K 4.02; A 2.54; M 2.4
E17: H 3.45; T 3.55; G 3.97
V3: P 3.81; E 4.49; F 2.99
M11: P 4.42; Q 3.6; E 3.91; R 4.58; C 3.46; F 3.36; W 2.54; T 4.27
R24: A 4; Y 2.38; M 2.96; K 3.74; L 2.92; N 3.66

Variants of: B2
Experiment: as above
Settings: c terminus: a fixed tail appended

Protein stability index: each site, then its substitutions
P20: K 1.95; D 1.48; V 1.82; M 1.57; Q 1.87; I 1.38; N 2.3; A 1.88; C 1.38; Y 2.23; L 2.02; H 2.55; S 1.95; G 2.08; R 1.91; E 1.4; T 2.2
L19: C 2.34; N 2.23; E 2.73; K 2.48; F 1.57; S 2.17; I 2.25; T 2.33; D 2.9; Q 2.5; M 2.1; R 2.5; H 1.79; A 2.12; Y 1.76; W 2.73; V 2.62; G 3.13; P 1.91
I16: D 2.76; R 2.12; E 3.09; A 3.14; W 2.13; K 2.53; V 2.38; F 1.69; G 2.01; H 1.98; T 2.56; C 2.22; N 3.14; S 2.08; P 2.89; M 1.67; Y 1.51; Q 2.32; L 1.56
R17: F 1.92; D 2.21; N 1.67; S 1.94; M 1.9; W 1.74; E 2.31; K 2.29; V 1.82; L 1.78; C 1.46; Q 1.62; A 1.81; P 2.15; Y 1.92; H 2.23; T 1.47; G 1.45; I 3.09
V13: Q 2.42; S 2.05; T 1.76; R 2.27; Y 1.84; M 1.67; N 2.38; L 1.64; W 2.07; K 2.25; P 2.18
E14: H 2.08; Q 1.48; M 1.53; R 1.05; L 2.13; S 1.45; V 1.45; P 2.95; K 1.48; A 2.3; G 1.89; W 2.21; Y 2.09; C 1.71; T 1.68; D 1.66; N 1.91
N21: P 1.83; C 2.21; H 1.83; I 2.15; E 2.02; W 1.32; K 3.13; T 2.04; G 1.45; L 1.94; S 1.9; R 1.34; A 1.7; F 1.95; Y 2.47; V 1.83; M 1.84; Q 1.74; D 2.43
T22: M 2.1; V 1.33; F 2.2; H 1.8; S 1.79; L 2.73; E 2.64; N 1.71; W 2.01; C 1.72; G 1.51; K 2.1; I 2.06; Y 1.63; R 2.02; Q 1.63; P 2.21; D 2.5; A 2.09
K18: L 1.72; D 2.08; C 1.75; P 1.59; R 2.18; N 1.64; E 2.03; H 2.95; V 2.15; F 2.53; T 1.89; I 1.43; A 1.26; Y 1.31; W 1.75; M 1.68; Q 1.54; G 1.53; S 2.08
K15: F 2.06; C 1.33; M 1.76; N 1.94; E 2.81; Q 2.23; L 2.34; D 2.17; V 2.12; P 2.07; H 1.36; R 2.21; Y 2.09; A 1.68; I 1.39; T 1.66; S 2.34; W 2.53; G 1.41
L24: T 1.94; S 2.49; V 1.96; E 2.62; K 2.09; N 2.61; R 1.38; P 2.12; Y 1.84; Q 2.48; I 1.95; H 2.02; M 1.8; F 2.04; G 2.56; C 2.12; W 2.1; A 1.71; D 3.15
L23: N 2.05; V 2.25; I 1.6; W 2.9; Y 1.45; D 2.31; M 1.89; F 1.51; H 2.67; E 3.05; R 1.66; K 2.36; Q 2.35; A 1.98; C 1.71; S 2.25; G 2.51; P 2.75; T 2.33
